# Measurements published in article PMC10621992.
# Target: TBK1 (UniProt Q9UHD2)
# Assay: co-immunoprecipitation, immunoblot
# Conditions: reference: wild-type IRF3 + TBK1 + BLK; sites Y107
substance,measurement,value
IRF3 (from UniProt Q14653) IRF3(Y107F) + TBK1 + BLK,binding against the reference,weaker
